Laboratory results from patent US6358897B1, “Alkyl trypsin compositions and methods of use in contact lens cleaning and disinfecting systems” (Alcon Laboratories, Inc., priority 1996, dated 2002).

System: azocasein
Test: Stability of Et-trypsin and trypsin in a disinfecting composition (Example 2B), azocasein method
Type: physicochemical
Settings: 37° C., Example 2B composition, 50 μg/ml
Method: Azocasein Method The following solutions are used in this assay: 1) Buffer solution: 0.05 M sodium phosphate buffer containing 0.9% sodium chloride, pH 7.6. 2) Substrate solution: 2 mg/ml azocasein in the buffer solution mentioned above. The assay is initiated by mixing 1 ml of an appropriately diluted (such that the enzyme activity is in the range of standard curve) enzyme composition in phosphate buffer with 2 ml of azocasein substrate solution (2 mg/ml). After incubation at 37° C. for 20 minutes, the mixture is removed from the incubator and 1 ml of trichloroacetic acid to (14% w/v) is added to stop the enzyme reaction. The mixture is vortexed well and allowed to stand at room temperature for 20 minutes. After centrifuging at 2500 rpm (with a Beckman GS-6R Centrifuge) for 15 minutes, the supernatant is filtered with a serum sampler. 2 ml of the clear yellow filtrate is then adjusted to a neutral pH with 2 ml of 0.5 N sodium hydroxide and the absorbance of 440 nm wavelength light is measured with a spectrophotometer. The amount of azocasein hydrolyzed is calculated based on a standard curve of known concentrations of azocasein solution developed under identical conditions. An enzyme activity unit (“AZ U”) is defined as that amount of enzyme which hydrolyzes 1 μg of azocasein substrate/minute at 37° C. The following is an example of the stability of Et-trypsin or Me-trypsin in a disinfecting composition of the present invention as compared to an analogous composition containing trypsin. The enzymes were solubilized in the Example 2B composition. The compositions were stored at 37° or 50° C. for 8 days or 30 hours, respectively. At various time points, enzyme activity was assayed using the azocasein method.

Which results are given for ethyl trypsin [Et-Trypsin]?
% Activity Remaining (1 Hour): 100%; % Activity Remaining (2 Hours): 100%; % Activity Remaining (4 Hours): 95.2%; % Activity Remaining (6 Hours): 99.3%; % Activity Remaining (8 Hours): 97.9%; % Activity Remaining (1 day): 89.7%; % Activity Remaining (2 days): 82.5%; % Activity Remaining (4 days): 76.4%; % Activity Remaining (8 days): 65.6%
